This is an account of results in paper PMC4046772, “Different Dynamical Effects in Mesophilic and Hyperthermophilic Dihydrofolate Reductases” (Journal of the American Chemical Society, 2014).

Substrate in data set [1]: Nc1nc2c(c(=O)[nH]1)N=C(CNc1ccc(C(=O)N[C@@H](CCC(=O)O)C(=O)O)cc1)CN2
Kind of data set: steady-state kinetics. Conditions: 45 °C, light enzyme (natural isotope abundance), co-substrate NADPH, steady-state kinetics at pH 7. The data set is classed as biochemical, Thermotoga maritima.

Substrate in data set [2]: NC(=O)C1=CN([C@@H]2O[C@H](COP(=O)(O)OP(=O)(O)OC[C@H]3O[C@@H](n4cnc5c(N)ncnc54)[C@H](OP(=O)(O)O)[C@@H]3O)[C@@H](O)[C@H]2O)C=CC1
Briefly: steady-state kinetics. The data set is classed as biochemical, Thermotoga maritima. The settings on record: 45 °C, light enzyme (natural isotope abundance), co-substrate dihydrofolate, steady-state kinetics at pH 7.

B1: TmDHFR (Thermotoga maritima MSB8) (protein)
chain: MAKVIFVLAMDVSGKIASSVESWSSFEDRKNFRKITTEIGNVVMGRITFEEIGRPLPERLNVVLTRRPKTSNNPSLVFFNGSPADVVKFLEGKGYERVAVIGGKTVFTEFLREKLVDELFVTVEPYVFGKGIPFFDEFEGYFPLKLLEMRRLNERGTLFLKYSVEKSHR
notes: purified homodimer, natural isotope abundance (light) enzyme; procedures in supplement
Usually Km stands for the substrate concentration at which the rate is half of its maximum. Regarding B1, the Km in data set [1] and in data set [2] was 1 µM throughout.
